Legend:
[1] = biological target: CTD released by factor Xa from full-length proRgpB662iXa produced in P. gingivalis (Porphyromonas gingivalis W83) (UniProt P95493); test: cross-linking; glutaraldehyde (0.01-0.1%) in PBS, 5 min at 37 °C, stopped with 100 mM Tris; protein at 1, 0.5 and 0.1 mg/ml; SDS-PAGE and Western blot
[2] = biological target: recombinant C-terminal domain (CTD) of gingipain B (RgpB) (Porphyromonas gingivalis W83) (UniProt P95493); test: cross-linking; data not shown: rCTD and r664i6H at 0.1 mg/ml exposed to 0.1, 0.05 and 0.01% glutaraldehyde
[3] = biological target: recombinant C-terminal domain (CTD) of gingipain B (RgpB) (Porphyromonas gingivalis W83) (UniProt P95493); test: SEC; Superdex 75 10/300 GL, 50 mM Tris, 150 mM NaCl, 2.5 mM CaCl2, 0.02% NaN3 pH 7.5; fractions analysed by Western blot with anti-rCTD antibodies
[4] = biological target: recombinant C-terminal domain (CTD) of gingipain B (RgpB) (Porphyromonas gingivalis W83) (UniProt P95493); test: cross-linking; glutaraldehyde (0.01-0.1%) in PBS, 5 min at 37 °C, stopped with 100 mM Tris; protein at 1, 0.5 and 0.1 mg/ml; SDS-PAGE and Western blot

| Substance | stoichiometry N [1] | stoichiometry N [2] | stoichiometry N [3] | stoichiometry N [4] |
| --- | --- | --- | --- | --- |
| CTD released by factor Xa from full-length proRgpB662iXa produced in P. gingivalis (from UniProt P95493 663-736) (domain or fragment) | 2 | – | – | – |
| recombinant C-terminal domain (CTD) of gingipain B (RgpB) (from UniProt P95493 664-736) (domain or fragment) | – | 2 | 2 | 2 |

Source: PMC4804311
